Source: the supplement of paper PMC9876800

Test system: peptide library, one residue held at a place counted from the S/T acceptor
Experiment: relative phosphorylation of the sub-library (ratio to the mean residue at this position); higher = residue favoured
Outline: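 Each biotinylated degenerate peptide sub-library fixed one residue at one position around a central Ser/Thr and was incubated with a purified recombinant kinase, a human or orthologue construct, in 384-well plates. The 90 min reactions, under kinase-specific conditions, contained 50 μM peptide and 50 μM ATP spiked with γ-32P-ATP. Phosphorylation was read by phosphorimaging spots on streptavidin membranes and quantifying them by densitometry. Relative sub-library phosphorylation expresses each value as a ratio to the mean residue at that position.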

GRK4, construct: Full length, human, sequence (P32298 whole entry, looked up): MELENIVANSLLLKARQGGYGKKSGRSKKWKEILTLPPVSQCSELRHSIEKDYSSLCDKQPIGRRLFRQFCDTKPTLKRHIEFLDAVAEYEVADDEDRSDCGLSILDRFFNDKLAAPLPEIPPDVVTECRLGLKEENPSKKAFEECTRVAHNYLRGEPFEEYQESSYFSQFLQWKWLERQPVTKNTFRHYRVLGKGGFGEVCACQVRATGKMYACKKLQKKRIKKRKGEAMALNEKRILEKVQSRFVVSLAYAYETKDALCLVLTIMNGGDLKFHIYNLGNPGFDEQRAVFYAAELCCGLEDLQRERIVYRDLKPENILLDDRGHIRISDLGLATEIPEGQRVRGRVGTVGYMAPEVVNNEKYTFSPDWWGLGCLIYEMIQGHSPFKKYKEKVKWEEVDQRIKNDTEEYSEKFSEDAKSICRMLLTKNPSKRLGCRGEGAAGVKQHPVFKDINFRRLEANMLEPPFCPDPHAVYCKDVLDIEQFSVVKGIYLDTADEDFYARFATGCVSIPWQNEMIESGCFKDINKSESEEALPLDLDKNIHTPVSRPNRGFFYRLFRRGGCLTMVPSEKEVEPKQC

DYRK1A, construct: aa147-185, human (from UniProt Q13627)
relative phosphorylation
Conditions | at +1 | at +2 | at +3 | at +4 | at -1 | at -2 | at -3 | at -4 | at -5
A fixed | 0.555 | 0.855 | 0.76 | 0.819 | 1.27 | 1.63 | 0.864 | 0.989 | 0.962
D fixed | 0.289 | 0.642 | 0.666 | 0.794 | 0.556 | 0.35 | 0.461 | 0.768 | 0.695
E fixed | 0.286 | 0.461 | 0.598 | 0.768 | 0.59 | 0.348 | 0.372 | 0.879 | 0.674
F fixed | 0.557 | 1.42 | 1.41 | 1.97 | 0.736 | 0.452 | 0.417 | 0.814 | 1.06
G fixed | 0.692 | 1.03 | 1 | 1.09 | 0.983 | 0.826 | 1.08 | 1.06 | 1.1
H fixed | 0.506 | 1.23 | 1.37 | 1.07 | 1.13 | 0.589 | 0.674 | 1.01 | 1.2
I fixed | 0.488 | 1.4 | 0.957 | 1.01 | 0.726 | 0.605 | 0.387 | 0.928 | 1
K fixed | 0.631 | 0.679 | 0.626 | 0.801 | 1.31 | 0.712 | 0.739 | 1.1 | 1.05
L fixed | 0.463 | 1.6 | 1.36 | 1.04 | 0.887 | 0.785 | 0.467 | 0.936 | 0.92
M fixed | 0.554 | 1.29 | 1.24 | 1.23 | 1.21 | 0.659 | 0.456 | 0.964 | 0.918
N fixed | 0.471 | 0.79 | 0.789 | 0.893 | 0.849 | 0.641 | 0.5 | 0.871 | 0.876
P fixed | 8.74 | 0.803 | 1.94 | 0.87 | 1.87 | 4.42 | 0.564 | 1.04 | 1.16
Q fixed | 0.475 | 0.721 | 0.882 | 0.861 | 0.998 | 0.608 | 0.618 | 0.891 | 0.95
R fixed | 0.783 | 0.811 | 0.725 | 0.714 | 1.46 | 2.63 | 8.09 | 2.1 | 1.73
V fixed | 0.537 | 1.27 | 0.761 | 0.86 | 0.907 | 0.805 | 0.366 | 0.726 | 0.767
W fixed | 0.54 | 0.941 | 1.03 | 1.23 | 0.708 | 0.486 | 0.497 | 0.934 | 0.814
Y fixed | 0.432 | 1.06 | 0.877 | 0.976 | 0.815 | 0.454 | 0.444 | 1 | 1.13
pThr fixed | 0.379 | 0.562 | 0.556 | 0.773 | 0.374 | 0.487 | 0.391 | 0.789 | 0.805
pTyr fixed | 0.441 | 0.547 | 0.598 | 0.87 | 0.612 | 0.419 | 0.45 | 0.782 | 0.791

GRK4, construct: Full length, human (from UniProt P32298)
relative phosphorylation
Conditions | at +1 | at +2 | at +3 | at +4 | at -1 | at -2 | at -3 | at -4 | at -5
A fixed | 0.613 | 1.5 | 0.747 | 0.859 | 0.654 | 0.895 | 0.863 | 0.994 | 1
D fixed | 0.683 | 1.24 | 1.53 | 1.65 | 1.57 | 2.39 | 1.88 | 1.75 | 1.83
E fixed | 1.41 | 0.872 | 1.57 | 1.51 | 1.2 | 1.95 | 1.88 | 1.69 | 1.48
F fixed | 1.52 | 1.23 | 1.51 | 1.17 | 0.998 | 0.992 | 0.902 | 0.854 | 0.992
G fixed | 0.577 | 0.879 | 0.953 | 0.928 | 0.619 | 0.983 | 0.927 | 0.965 | 1.02
H fixed | 0.879 | 0.954 | 0.99 | 0.911 | 1.92 | 0.855 | 0.911 | 0.897 | 0.991
I fixed | 1.57 | 1.54 | 0.741 | 0.779 | 0.637 | 0.649 | 0.697 | 0.752 | 0.695
K fixed | 0.455 | 0.414 | 0.432 | 0.614 | 0.492 | 0.547 | 0.612 | 0.778 | 0.89
L fixed | 1.01 | 0.356 | 0.763 | 0.777 | 0.882 | 0.619 | 0.745 | 0.835 | 0.796
M fixed | 1.44 | 0.717 | 0.918 | 0.894 | 0.792 | 0.681 | 0.858 | 0.874 | 0.794
N fixed | 0.674 | 0.753 | 0.685 | 0.906 | 1.28 | 1.18 | 1.03 | 1.05 | 0.954
P fixed | 0.249 | 0.522 | 0.928 | 1.3 | 0.607 | 0.77 | 1.2 | 0.977 | 0.892
Q fixed | 1.28 | 0.613 | 0.662 | 0.903 | 0.805 | 0.872 | 0.912 | 0.839 | 0.86
R fixed | 0.602 | 0.408 | 0.554 | 0.654 | 0.542 | 0.789 | 0.787 | 0.797 | 0.814
V fixed | 1.75 | 1.85 | 0.782 | 0.855 | 1.21 | 0.71 | 0.721 | 0.812 | 0.773
W fixed | 1.16 | 1.73 | 2.11 | 1.29 | 0.812 | 1.21 | 0.941 | 1.09 | 1.25
Y fixed | 1.12 | 1.43 | 1.12 | 1 | 1.97 | 0.903 | 1.13 | 1.05 | 0.975
pThr fixed | 1.45 | 0.994 | 1.12 | 2.32 | 0.656 | 3.34 | 3.2 | 1.75 | 1.4
pTyr fixed | 1.46 | 1.33 | 1.25 | 1.81 | 1.73 | 3.38 | 2.82 | 2.06 | 1.71
